From publication PMC7105497 come the findings set out here.

The target of the assay is human EWI-2 wild type with FLAG-tag (FSEC assay) (human) (UniProt Q969P0). The assay is described as follows: SEC; fluorescence-detection size-exclusion chromatography (FSEC): GFP-tagged CD9 and FLAG-tagged EWI-2 co-expressed in HEK293T cells, solubilised in 1% digitonin, supernatant run on Superose 6 Increase in 10 mM HEPES pH 7.0, 150 mM NaCl, 0.1% digitonin; GFP fluorescence monitored.
Sequence of UniProt Q969P0 (Q969P0 28-613): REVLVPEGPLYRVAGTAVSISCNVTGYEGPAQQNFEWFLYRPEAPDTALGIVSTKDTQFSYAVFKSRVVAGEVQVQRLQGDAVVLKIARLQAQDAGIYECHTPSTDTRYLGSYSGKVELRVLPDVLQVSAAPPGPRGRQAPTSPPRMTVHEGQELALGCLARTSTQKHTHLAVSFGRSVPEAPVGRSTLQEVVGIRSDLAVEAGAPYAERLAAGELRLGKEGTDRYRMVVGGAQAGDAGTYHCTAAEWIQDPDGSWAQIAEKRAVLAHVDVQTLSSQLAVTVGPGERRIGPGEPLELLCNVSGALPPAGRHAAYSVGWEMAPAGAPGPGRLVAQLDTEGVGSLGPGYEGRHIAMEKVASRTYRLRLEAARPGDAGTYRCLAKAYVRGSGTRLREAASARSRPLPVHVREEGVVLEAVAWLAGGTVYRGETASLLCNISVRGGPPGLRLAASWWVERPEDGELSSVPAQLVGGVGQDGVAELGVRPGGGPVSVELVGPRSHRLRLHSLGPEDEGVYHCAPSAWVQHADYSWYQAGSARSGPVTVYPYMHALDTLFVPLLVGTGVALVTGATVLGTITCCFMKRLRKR

Turning to “CD9-CD53LEL (CD9 with its LEL region exchanged with that of CD53)”, the stoichiometry N (EWI-2 per CD9) was 2.
